Test results: patent US20250027114

How the values were obtained:
[1] = system: T1, E1-2-ABE8e (Neisseria meningitidis); experiment: cell_activity; settings: PAM N4YNC average, E. coli ABE-PPA; 14% on N4YND
T1 sequence: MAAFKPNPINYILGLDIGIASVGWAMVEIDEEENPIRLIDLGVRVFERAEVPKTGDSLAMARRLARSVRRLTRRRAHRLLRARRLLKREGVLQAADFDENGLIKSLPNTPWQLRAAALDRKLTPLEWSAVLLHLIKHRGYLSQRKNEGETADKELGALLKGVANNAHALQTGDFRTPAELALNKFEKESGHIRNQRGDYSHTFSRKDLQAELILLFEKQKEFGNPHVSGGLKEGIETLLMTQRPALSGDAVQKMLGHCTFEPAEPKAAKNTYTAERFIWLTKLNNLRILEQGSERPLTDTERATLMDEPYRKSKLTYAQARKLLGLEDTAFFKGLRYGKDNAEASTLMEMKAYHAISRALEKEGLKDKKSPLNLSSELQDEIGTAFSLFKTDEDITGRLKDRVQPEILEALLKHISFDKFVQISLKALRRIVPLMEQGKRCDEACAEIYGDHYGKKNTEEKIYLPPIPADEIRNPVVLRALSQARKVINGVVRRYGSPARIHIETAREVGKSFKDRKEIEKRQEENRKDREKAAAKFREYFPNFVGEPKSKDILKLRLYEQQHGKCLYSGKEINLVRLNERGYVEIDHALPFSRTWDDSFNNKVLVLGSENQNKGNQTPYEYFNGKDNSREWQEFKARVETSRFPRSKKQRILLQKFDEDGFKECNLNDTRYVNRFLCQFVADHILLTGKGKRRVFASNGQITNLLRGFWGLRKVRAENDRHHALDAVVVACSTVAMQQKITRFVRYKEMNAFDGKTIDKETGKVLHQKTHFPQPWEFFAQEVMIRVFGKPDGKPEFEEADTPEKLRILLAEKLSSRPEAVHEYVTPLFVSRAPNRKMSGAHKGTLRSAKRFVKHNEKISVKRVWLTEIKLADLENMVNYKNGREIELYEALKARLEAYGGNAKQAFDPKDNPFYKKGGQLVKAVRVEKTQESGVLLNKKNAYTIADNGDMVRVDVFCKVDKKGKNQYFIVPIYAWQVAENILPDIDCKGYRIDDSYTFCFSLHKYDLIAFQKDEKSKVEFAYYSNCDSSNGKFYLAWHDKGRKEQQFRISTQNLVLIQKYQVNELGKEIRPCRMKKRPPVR

[2] = system: T2, N1-21-ABE8e (Neisseria meningitidis); experiment: cell_activity; settings: E. coli ABE-PPA
T2 sequence: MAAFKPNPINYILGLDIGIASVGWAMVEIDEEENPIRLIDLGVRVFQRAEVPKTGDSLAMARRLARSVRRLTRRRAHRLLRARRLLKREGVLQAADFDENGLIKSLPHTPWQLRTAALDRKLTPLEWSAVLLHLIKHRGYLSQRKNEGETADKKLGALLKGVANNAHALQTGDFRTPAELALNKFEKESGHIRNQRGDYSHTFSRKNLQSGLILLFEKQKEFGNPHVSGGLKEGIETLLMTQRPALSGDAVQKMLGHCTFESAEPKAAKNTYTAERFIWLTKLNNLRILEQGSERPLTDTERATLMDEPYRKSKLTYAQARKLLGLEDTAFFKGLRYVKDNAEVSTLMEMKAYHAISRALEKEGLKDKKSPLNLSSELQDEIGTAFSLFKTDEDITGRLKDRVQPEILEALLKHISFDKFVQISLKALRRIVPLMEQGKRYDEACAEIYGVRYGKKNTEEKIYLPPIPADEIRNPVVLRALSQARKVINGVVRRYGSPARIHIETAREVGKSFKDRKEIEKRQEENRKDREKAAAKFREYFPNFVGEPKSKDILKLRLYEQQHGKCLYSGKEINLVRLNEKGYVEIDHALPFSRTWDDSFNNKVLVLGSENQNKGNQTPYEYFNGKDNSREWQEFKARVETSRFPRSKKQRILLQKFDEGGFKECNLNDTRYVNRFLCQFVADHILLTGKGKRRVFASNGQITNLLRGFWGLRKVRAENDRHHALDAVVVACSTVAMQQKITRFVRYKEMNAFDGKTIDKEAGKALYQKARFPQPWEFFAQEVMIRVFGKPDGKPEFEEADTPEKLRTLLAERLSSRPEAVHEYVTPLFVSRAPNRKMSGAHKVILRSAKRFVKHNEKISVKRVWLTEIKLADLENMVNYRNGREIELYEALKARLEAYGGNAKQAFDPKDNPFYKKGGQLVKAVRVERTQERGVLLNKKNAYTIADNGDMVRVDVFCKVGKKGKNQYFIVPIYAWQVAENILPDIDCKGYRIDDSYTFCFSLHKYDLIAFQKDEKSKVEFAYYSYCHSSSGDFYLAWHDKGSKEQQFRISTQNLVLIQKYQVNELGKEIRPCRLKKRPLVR

Sequence: AUGGCCCAGACUGAGCACGUGAGGUUGUAGCUCCCUUUCUCAUUUCGGAAACGAAAUGAGAACCGUUGCUACAAUAAGGCCGUCUGAAAAGAUGUGCCGCAACGCUCUGCCCCUUAAAGCUUCUGCUUUAAGGGGCAUCGUUUA / ATGGCCCAGACTGAGCACGTGA / TCACGTGCTCAGTCTGGGCCAT [ABE-PPA sgRNA ; ABE-PPA protospacer library target]
- activity (% A-to-G conversion) [1]: 29
- activity (% A-to-G conversion) ([2]; PAM N3CCC (counterselected), virtually eliminated): 4.8
- activity (% A-to-G conversion) ([2]; PAM N3TTG, 64% average on N4GN PAMs): 67
